From PMC12273574, “Biochemical and structural characterization of a GNAT superfamily protein acetyltransferase from Helicobacter pylori” (The Journal of Biological Chemistry, 2025)

Experiments:
Test in all cases: purified protein
purified protein [1] = substrate: CC(=O)NCCCC[C@H](N)C(=O)O; conditions: 14C-ACO, 800 nM enzyme; Nα-amino group acetylated; unit μM as printed beside mM for the Nα-acetyl isomer
purified protein [2] = substrate: CC(=O)SCCNC(=O)CCNC(=O)[C@H](O)C(C)(C)COP(=O)(O)OP(=O)(O)OC[C@H]1O[C@@H](n2cnc3c(N)ncnc32)[C@H](O)[C@@H]1OP(=O)(O)O; conditions: 50 mM lysine, 5-50 μM 14C-ACO, 800 nM enzyme, pH 8.0, 30 °C; labelled compound; pH 8.0; 30.0 °C
purified protein [3] = substrate: NCCCC[C@H](N)C(=O)O; conditions: 50 μM 14C-ACO, 1-50 mM lysine, 800 nM enzyme, pH 8.0, 30 °C; pH 8.0; 30.0 °C

B1: HP0935 (Helicobacter pylori 26695) (protein)
chain: MTIKVFSPKYPTELEEFYAERIADNPLGFIQRLDLLPSISGFVQKLREHGGEFFEMREGNKLIGICGLNPINQTEAELCKFHINSAYQSQGLGQKLYESVEKYAFIKGYTKISLHVSKSQIKACNLYQKLGFVHIKEEDCVVELGEETLIFPTLFMEKILS
Purified protein [1]
  Km: 26.71 µM
Purified protein [2]
  Km: 21.44 µM
Purified protein [3]
  Km: 31310 µM
